Reference: PMC13157019 (eBioMedicine, 2026)

B1: LC^3.Env^3 (fibritin-stabilised HIV-1 Env gp140z trimer fused to three scFv of the anti-Langerin 4C7 mAb) (scFv, V domains shown)
VH: QVQLQQSGAELVRPGASVTLSCKASGYTFIDHDMHWVQQTPVYGLEWIGAIDPETGDTGYNQKFKGKAILTADKSSRTAYMELRSLTSEDSAVYYCTIPFYYSNYSPFAYWGQGTLVTVSA
VL: QIVLSQSPAILSASPGEKVTMTCRASSSVSYMHWYQRKPGSSPKPWIYATSNLASGVPARFSGSGSGTSYSLTISRVEAEDAATYYCQQWSSNPLTFGAGTKLELK
B2: LC.Env (anti-Langerin 4C7 mAb fused to HIV-1 envelope gp140z from clade C 96ZM651) (antibody, V domains shown)
VH: B1 VH
VL: B1 VL

Legend:
Assay in all cases: SPR
[1] = target: human Langerin ectodomain (recombinant) (Homo sapiens, UniProt Q9UJ71)
Chain of human Langerin ectodomain (recombinant) (Q9UJ71 65-328): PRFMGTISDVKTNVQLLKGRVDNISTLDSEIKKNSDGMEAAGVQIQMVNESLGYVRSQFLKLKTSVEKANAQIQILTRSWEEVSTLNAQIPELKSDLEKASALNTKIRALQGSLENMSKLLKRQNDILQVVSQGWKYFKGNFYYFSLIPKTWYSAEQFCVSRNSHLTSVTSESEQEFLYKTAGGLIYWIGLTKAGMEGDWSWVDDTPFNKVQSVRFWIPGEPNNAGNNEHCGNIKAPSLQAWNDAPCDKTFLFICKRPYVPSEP

[2] = target: mouse Langerin ectodomain (recombinant) (Mus musculus, UniProt Q8VBX4)
Chain of mouse Langerin ectodomain (recombinant) (Q8VBX4 63-331): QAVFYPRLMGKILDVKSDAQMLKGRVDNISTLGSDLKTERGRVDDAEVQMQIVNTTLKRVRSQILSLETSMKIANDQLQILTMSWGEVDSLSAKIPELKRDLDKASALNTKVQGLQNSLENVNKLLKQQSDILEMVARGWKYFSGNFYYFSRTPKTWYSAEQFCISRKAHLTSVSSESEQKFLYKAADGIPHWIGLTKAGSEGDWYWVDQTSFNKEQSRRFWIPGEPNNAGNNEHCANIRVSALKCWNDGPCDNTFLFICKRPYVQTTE

[3] = target: T1, rabbit Langerin ectodomain (recombinant) (rabbit)
T1 chain: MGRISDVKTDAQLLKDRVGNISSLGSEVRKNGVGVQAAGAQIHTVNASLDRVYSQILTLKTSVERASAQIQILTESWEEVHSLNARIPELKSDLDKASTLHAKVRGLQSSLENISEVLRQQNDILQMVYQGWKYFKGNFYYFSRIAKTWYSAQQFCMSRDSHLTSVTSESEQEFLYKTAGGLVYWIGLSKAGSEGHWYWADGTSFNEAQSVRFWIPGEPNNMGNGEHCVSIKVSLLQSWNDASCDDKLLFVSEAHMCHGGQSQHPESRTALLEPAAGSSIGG

Row | Binder | Kd [1] | Kd [2] | Kd [3]
1 | B1 | ~3.5 nM | ~3.5 nM | ~3.5 nM
2 | B2 | ~0.7 nM | ~0.7 nM | ~0.7 nM
